Experimental data from paper PMC12124358.

Key:
[1] = biological target: H3 (3–19)_([change]-[change]) (UniProt P68431); assay: crystal structure
[2] = biological target: H3 (3–19)_([change]-[change])-Ub_([change]) (UniProt P68431); assay: crystal structure
[3] = biological target: unmodified histone H3 N-terminal tail (residues 1 to 20) (UniProt P68431)

Chain of Clr4 lysine methyltransferase (KMT) domain (residues 192 to 490) (O60016 192-490): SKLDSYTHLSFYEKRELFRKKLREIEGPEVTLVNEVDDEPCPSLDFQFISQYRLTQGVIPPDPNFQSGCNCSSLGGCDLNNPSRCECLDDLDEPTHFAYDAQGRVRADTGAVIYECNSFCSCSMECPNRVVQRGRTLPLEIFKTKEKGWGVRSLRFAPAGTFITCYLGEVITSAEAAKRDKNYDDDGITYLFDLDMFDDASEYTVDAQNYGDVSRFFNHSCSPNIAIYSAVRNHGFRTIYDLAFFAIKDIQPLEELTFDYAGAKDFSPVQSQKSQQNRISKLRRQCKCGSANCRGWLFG
Chain of full-length Clr4 (residues 1 to 490) (O60016 whole entry, the tested form may be a part): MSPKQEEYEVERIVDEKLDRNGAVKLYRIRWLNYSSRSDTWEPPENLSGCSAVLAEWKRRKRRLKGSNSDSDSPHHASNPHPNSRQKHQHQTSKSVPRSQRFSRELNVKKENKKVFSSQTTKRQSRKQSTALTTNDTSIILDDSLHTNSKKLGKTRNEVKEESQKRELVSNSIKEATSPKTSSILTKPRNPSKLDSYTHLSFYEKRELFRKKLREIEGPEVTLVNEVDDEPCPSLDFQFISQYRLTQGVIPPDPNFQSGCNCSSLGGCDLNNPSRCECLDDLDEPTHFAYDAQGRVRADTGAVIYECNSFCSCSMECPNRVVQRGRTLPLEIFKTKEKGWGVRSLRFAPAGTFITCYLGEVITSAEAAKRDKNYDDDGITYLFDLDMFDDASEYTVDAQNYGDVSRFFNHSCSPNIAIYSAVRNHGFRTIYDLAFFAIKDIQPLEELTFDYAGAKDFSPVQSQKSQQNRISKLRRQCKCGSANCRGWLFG

Substance | stoichiometry N [1] | stoichiometry N [2] | Km, Michaelis-Menten kinetics of H3K9 methylation (MTase-Glo, SAH production) [3] [µM]
Clr4 lysine methyltransferase (KMT) domain (residues 192 to 490) (from UniProt O60016 192-490) (domain or fragment) | 1 | 1 | 
full-length Clr4 (residues 1 to 490) (from UniProt O60016 1-490) (enzyme) |  |  | 75.8
full-length Clr4 K455A/K472A (automethylation-mimicking) (from UniProt O60016 1-490) (enzyme) |  |  | 26.5
